From the supplement of paper PMC7877785
± gives the uncertainty stated by the source.

Assay: self-splicing fitness, log relative to wild type (ln ratio); higher = more splicing; Tetrahymena group I intron in knt gene, E. coli kanamycin selection, DiMSum; sequences stand for … in CUCUCU…GGAGGGAAAAGUUAUCAGGCAUGCACCUGGUAGCUAGUCUUUAAACCAAUAGAUUGCAUCGGUUUAAAAGGCAAGACCGUCAAAUUGCGGGAAAGGGGUCAACAGCCGUUCAGUACCAAGUCUCAGGGGAAACUUUGAGAUGGCCUUGCAAAGGGUAUGGUAAUAAGCUGACGGACAUGGUCCUAACCACGCAGCCAAGUCCUAAGUCAACAGAUCUUCUGUUGAUAUGGAUGCAGUUCACAGACUAAAUGUCGGUCGGGGAAGAUGUAUUCUUCUCAUAAGAUAUAGUCGGACCUCUCCUUAAUGGGAGCUAGCGGAUGAAGUGAUGCAACACUGGAGCCGCUGGGAACUAAUUUGUAUGCGAAAGUAUAUUGAUUAGUUUUGGAGUACUCGUGGUCG
How it was run: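 The eight P1ex-region nucleotides of an intron in the knt kanamycin-resistance gene on pET-22b(+) were all randomised and the library put into E. coli BL21(DE3). Six replicate transformations were grown overnight at 37°C or 30°C on LB agar with or without 25 μg/mL kanamycin, together with 100 μg/mL carbenicillin, 50 μM IPTG and 0.2% rhamnose. Colonies were pooled and amplicon-sequenced on an Illumina HiSeq 2500. Fitness from DiMSum is the error-weighted combination of wild-type-normalised replicate fold changes, kanamycin over none.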

| Sequence | self-splicing fitness (ln) (30 °C) | self-splicing fitness (ln) (37 °C) |
| --- | --- | --- |
| GGCUAGCAAUAUUACGCUGC | -3.21 ± 0.19 | -2.65 ± 0.19 |
| GGCUAGCAAUAUUACGGAAG | -1.13 ± 0.11 | -0.386 ± 0.14 |
| GGCUAGCAAUAUUACGGACC | -1.67 ± 0.14 | -0.619 ± 0.2 |
| GGCUAGCAAUAUUACGGACU | -0.601 ± 0.081 | 0.198 ± 0.098 |
| GGCUAGCAAUAUUACGGAGC | -3.22 ± 0.22 | -2.25 ± 0.26 |
| GGCUAGCAAUAUUACGGAGG | -3.21 ± 0.26 | -1.58 ± 0.2 |
| GGCUAGCAAUAUUACGGAUC | -0.815 ± 0.23 | 0.314 ± 0.2 |
| GGCUAGCAAUAUUACGGCAA | 0.218 ± 0.07 | -0.682 ± 0.086 |
| GGCUAGCAAUAUUACGGCAC | 0.203 ± 0.13 | -0.036 ± 0.14 |
| GGCUAGCAAUAUUACGGGUA | -0.679 ± 0.12 | -0.368 ± 0.11 |
| GGCUAGCAAUAUUACGUAGG | -1.96 ± 0.14 | -1.78 ± 0.13 |
| GGCUAGCAAUAUUACGUAUA | -1.27 ± 0.22 | -0.659 ± 0.19 |
| GGCUAGCAAUAUUACGUCCU | -1.68 ± 0.1 | -1.3 ± 0.13 |
| GGCUAGCAAUAUUACGUUAG | -3.51 ± 0.32 | -0.919 ± 0.24 |
| GGCUAGCAAUAUUACGUUUA | -0.381 ± 0.15 | -0.882 ± 0.16 |
| GGGAAGCAAUAUUACGAAAU | -3.24 ± 0.19 | -2.26 ± 0.22 |
| GGGAAGCAAUAUUACGACAC | -0.539 ± 0.25 | 0.0269 ± 0.38 |
| GGGAAGCAAUAUUACGAGCU | -0.998 ± 0.29 | -0.3 ± 0.36 |
| GGGAAGCAAUAUUACGAUCA | -0.768 ± 0.33 | -0.0795 ± 0.35 |
| GGGAAGCAAUAUUACGAUGU | -1.02 ± 0.083 | -0.0643 ± 0.1 |
| GGGAAGCAAUAUUACGCCCA | -0.527 ± 0.15 | -0.717 ± 0.21 |
| GGGAAGCAAUAUUACGCGAC | -2.77 ± 0.37 | -1.5 ± 0.32 |
| GGGAAGCAAUAUUACGGAAG | -0.00595 ± 0.22 | -1.47 ± 0.39 |
| GGGAAGCAAUAUUACGGCAC | 0.0244 ± 0.3 | -0.976 ± 0.36 |
| GGGAAGCAAUAUUACGGCCG | -0.164 ± 0.12 | -0.0913 ± 0.15 |

| Sequence | self-splicing fitness (ln) (30 °C) | self-splicing fitness (ln) (37 °C) |
| --- | --- | --- |
| GGGAAGCAAUAUUACGGUAC | -1.47 ± 0.25 | -1.08 ± 0.27 |
| GGGAAGCAAUAUUACGUCGA | -0.874 ± 0.12 | -0.739 ± 0.13 |
| GGGAAGCAAUAUUACGUCGU | -0.671 ± 0.16 | -0.462 ± 0.16 |
| GGGAAGCAAUAUUACGUGAC | -1.99 ± 0.18 | 0.336 ± 0.21 |
| GGGAAGCAAUAUUACGUGUG | -1.15 ± 0.097 | -1.24 ± 0.13 |
| GGGAAGCAAUAUUACGUUUC | -3.58 ± 0.19 | -2.19 ± 0.29 |
| GGGCAGCAAUAUUACGAACC | -0.749 ± 0.29 | -0.806 ± 0.31 |
| GGGCAGCAAUAUUACGAAGU | -1.95 ± 0.14 | -0.794 ± 0.21 |
| GGGCAGCAAUAUUACGACCU | -1.88 ± 0.28 | -1.26 ± 0.44 |
| GGGCAGCAAUAUUACGAUAG | -3.54 ± 0.2 | -2.43 ± 0.22 |
| GGGCAGCAAUAUUACGCCAG | -2.02 ± 0.1 | -0.684 ± 0.13 |
| GGGCAGCAAUAUUACGCCUC |  | -1.42 ± 0.31 |
| GGGCAGCAAUAUUACGCUCA | -1.09 ± 0.094 | -0.272 ± 0.16 |
| GGGCAGCAAUAUUACGCUGU | -2.65 ± 0.29 | -1.21 ± 0.21 |
| GGGCAGCAAUAUUACGGCGG | -1.76 ± 0.12 | -1.99 ± 0.17 |
| GGGCAGCAAUAUUACGGGAA | -2.67 ± 0.31 | -2.7 ± 0.32 |
| GGGCAGCAAUAUUACGGUAA | -1.69 ± 0.27 | -0.663 ± 0.19 |
| GGGCAGCAAUAUUACGGUCG | -0.993 ± 0.076 | -0.0756 ± 0.12 |
| GGGCAGCAAUAUUACGGUGA | -0.844 ± 0.074 | -0.671 ± 0.088 |
| GGGCAGCAAUAUUACGGUUA | -0.537 ± 0.097 | -0.339 ± 0.089 |
| GGGCAGCAAUAUUACGGUUU | -0.465 ± 0.065 | -0.681 ± 0.071 |
| GGGCAGCAAUAUUACGUACC | -1.88 ± 0.31 | -1.39 ± 0.48 |
| GGGCAGCAAUAUUACGUCUU | -0.531 ± 0.081 | 0.0306 ± 0.098 |
| GGGCAGCAAUAUUACGUGGA | -2.81 ± 0.11 | -1.62 ± 0.099 |
| GGGCAGCAAUAUUACGUGGU | -2.88 ± 0.17 | -1.58 ± 0.13 |

| Sequence | self-splicing fitness (ln) (30 °C) | self-splicing fitness (ln) (37 °C) |
| --- | --- | --- |
| GGGCAGCAAUAUUACGUUGC | -3.77 ± 0.16 | -1.95 ± 0.19 |
| GGGCAGCAAUAUUACGUUUU | -0.77 ± 0.046 | 0.221 ± 0.063 |
| GGGGAGCAAUAUUACGAGCG | -2.37 ± 0.25 | -1.53 ± 0.22 |
| GGGGAGCAAUAUUACGAUAU | -2.95 ± 0.4 | -0.987 ± 0.24 |
| GGGGAGCAAUAUUACGCGAU |  | -0.791 ± 0.24 |
| GGGGAGCAAUAUUACGCGUA | -1.53 ± 0.38 | -1.13 ± 0.3 |
| GGGGAGCAAUAUUACGCGUU | -2.88 ± 0.13 | -1.04 ± 0.14 |
| GGGGAGCAAUAUUACGCUGC | -2.22 ± 0.45 |  |
| GGGGAGCAAUAUUACGGACU | 0.0915 ± 0.28 | -0.621 ± 0.22 |
| GGGGAGCAAUAUUACGGCCA | -0.941 ± 0.2 | 0.555 ± 0.21 |
| GGGGAGCAAUAUUACGGGGC | -2.92 ± 0.37 | -2.2 ± 0.27 |
| GGGGAGCAAUAUUACGGUAU |  | -2.23 ± 0.39 |
| GGGGAGCAAUAUUACGGUUA | -1.34 ± 0.26 | -2.75 ± 0.31 |
| GGGGAGCAAUAUUACGUACA | -1.75 ± 0.2 | -1.76 ± 0.49 |
| GGGGAGCAAUAUUACGUCGG |  | -1.07 ± 0.36 |
| GGGGAGCAAUAUUACGUGCA | -3.32 ± 0.25 | -1.08 ± 0.17 |
| GGGGAGCAAUAUUACGUGCG | -1.61 ± 0.14 | -1.54 ± 0.27 |
| GGGGAGCAAUAUUACGUUCU | -2.67 ± 0.43 | -0.226 ± 0.35 |
| GGGUAGCAAUAUUACGAACA |  | -0.706 ± 0.39 |
| GGGUAGCAAUAUUACGACUG | 0.0705 ± 0.13 | 0.222 ± 0.18 |
| GGGUAGCAAUAUUACGACUU | -1.03 ± 0.13 | 0.345 ± 0.16 |
| GGGUAGCAAUAUUACGCACU | -3.8 ± 0.47 | -0.577 ± 0.29 |
| GGGUAGCAAUAUUACGCCAA | -0.499 ± 0.16 | -0.0896 ± 0.15 |
| GGGUAGCAAUAUUACGCGGU | -3.15 ± 0.21 | -1.4 ± 0.2 |
| GGGUAGCAAUAUUACGCUAG |  | -1.24 ± 0.26 |

| Sequence | self-splicing fitness (ln) (30 °C) | self-splicing fitness (ln) (37 °C) |
| --- | --- | --- |
| GGGUAGCAAUAUUACGGAAG | -3.46 ± 0.35 | -1.87 ± 0.45 |
| GGGUAGCAAUAUUACGGCGG | -2.35 ± 0.24 | -2.12 ± 0.28 |
| GGGUAGCAAUAUUACGGCGU | -0.56 ± 0.13 | -0.386 ± 0.12 |
| GGGUAGCAAUAUUACGGGGG | -2.97 ± 0.24 | -2.09 ± 0.25 |
| GGGUAGCAAUAUUACGGUAA | -1.28 ± 0.12 | -0.587 ± 0.1 |
| GGGUAGCAAUAUUACGGUAC | -2.04 ± 0.12 | -0.23 ± 0.15 |
| GGGUAGCAAUAUUACGGUGA | -1.74 ± 0.19 | 0.155 ± 0.16 |
| GGGUAGCAAUAUUACGUAAC | -1.07 ± 0.15 | -0.795 ± 0.22 |
| GGGUAGCAAUAUUACGUCAU | -0.733 ± 0.07 | -0.742 ± 0.081 |
| GGGUAGCAAUAUUACGUCCC | -0.987 ± 0.29 |  |
| GGGUAGCAAUAUUACGUGAU | -2.64 ± 0.19 | -0.239 ± 0.18 |
| GGGUAGCAAUAUUACGUUGA | -2.44 ± 0.16 | -0.495 ± 0.11 |
| GGUAAGCAAUAUUACGAAAG | -3.68 ± 0.47 |  |
| GGUAAGCAAUAUUACGAAUA | -1.25 ± 0.26 | -0.561 ± 0.27 |
| GGUAAGCAAUAUUACGACAC | -0.00191 ± 0.13 | 0.285 ± 0.19 |
| GGUAAGCAAUAUUACGAGAC | -1.71 ± 0.39 | -0.652 ± 0.27 |
| GGUAAGCAAUAUUACGAUUA | -0.734 ± 0.094 | -0.221 ± 0.11 |
| GGUAAGCAAUAUUACGCUCU | -3.29 ± 0.32 | -2.16 ± 0.35 |
| GGUAAGCAAUAUUACGGAAC | -1.55 ± 0.17 | -0.543 ± 0.21 |
| GGUAAGCAAUAUUACGGACA | -0.53 ± 0.13 | -0.0615 ± 0.15 |
| GGUAAGCAAUAUUACGGCAG | -3.62 ± 0.43 | -2.49 ± 0.45 |
| GGUAAGCAAUAUUACGGUCA | -0.727 ± 0.1 | 0.416 ± 0.11 |
| GGUAAGCAAUAUUACGGUUC | -0.52 ± 0.16 | -0.621 ± 0.17 |
